We go through one molecule from publication PMC5456377, “Megalin dependent urinary cystatin C excretion in ischemic kidney injury in rats” (PLoS ONE, 2017).

In one experiment the target is T1, rat megalin (rat, UniProt P98158 26-4660).
T1 construct: megalin, rat, purified and immobilised on the SPR chip; probably the native receptor purified from rat kidney (surmised)
The experiment in a line: SPR; rat megalin or cubilin immobilised; human cysC flowed at 20-500 nM (7 concentrations); CaHBS: 10 mM HEPES, 150 mM NaCl, 1.5 mM CaCl2, 1 mM EGTA, pH 7.4; Biacore 3000; Langmuir 1:1 model, global fit. The conditions noted are these: both partners purified. (In general: SPR reads the build-up and loss of mass on a sensor chip optically.)

Another experiment addresses T2, rat cubilin (rat, UniProt O70244 33-3623).
T2 construct: cubilin, rat, purified and immobilised on the SPR chip; probably the native receptor purified from rat kidney (surmised)
The description is as above. Conditions: both partners purified.

By Kd is commonly meant the constant that tells how readily two partners part at equilibrium.

T1 sequence (P98158 26-4660): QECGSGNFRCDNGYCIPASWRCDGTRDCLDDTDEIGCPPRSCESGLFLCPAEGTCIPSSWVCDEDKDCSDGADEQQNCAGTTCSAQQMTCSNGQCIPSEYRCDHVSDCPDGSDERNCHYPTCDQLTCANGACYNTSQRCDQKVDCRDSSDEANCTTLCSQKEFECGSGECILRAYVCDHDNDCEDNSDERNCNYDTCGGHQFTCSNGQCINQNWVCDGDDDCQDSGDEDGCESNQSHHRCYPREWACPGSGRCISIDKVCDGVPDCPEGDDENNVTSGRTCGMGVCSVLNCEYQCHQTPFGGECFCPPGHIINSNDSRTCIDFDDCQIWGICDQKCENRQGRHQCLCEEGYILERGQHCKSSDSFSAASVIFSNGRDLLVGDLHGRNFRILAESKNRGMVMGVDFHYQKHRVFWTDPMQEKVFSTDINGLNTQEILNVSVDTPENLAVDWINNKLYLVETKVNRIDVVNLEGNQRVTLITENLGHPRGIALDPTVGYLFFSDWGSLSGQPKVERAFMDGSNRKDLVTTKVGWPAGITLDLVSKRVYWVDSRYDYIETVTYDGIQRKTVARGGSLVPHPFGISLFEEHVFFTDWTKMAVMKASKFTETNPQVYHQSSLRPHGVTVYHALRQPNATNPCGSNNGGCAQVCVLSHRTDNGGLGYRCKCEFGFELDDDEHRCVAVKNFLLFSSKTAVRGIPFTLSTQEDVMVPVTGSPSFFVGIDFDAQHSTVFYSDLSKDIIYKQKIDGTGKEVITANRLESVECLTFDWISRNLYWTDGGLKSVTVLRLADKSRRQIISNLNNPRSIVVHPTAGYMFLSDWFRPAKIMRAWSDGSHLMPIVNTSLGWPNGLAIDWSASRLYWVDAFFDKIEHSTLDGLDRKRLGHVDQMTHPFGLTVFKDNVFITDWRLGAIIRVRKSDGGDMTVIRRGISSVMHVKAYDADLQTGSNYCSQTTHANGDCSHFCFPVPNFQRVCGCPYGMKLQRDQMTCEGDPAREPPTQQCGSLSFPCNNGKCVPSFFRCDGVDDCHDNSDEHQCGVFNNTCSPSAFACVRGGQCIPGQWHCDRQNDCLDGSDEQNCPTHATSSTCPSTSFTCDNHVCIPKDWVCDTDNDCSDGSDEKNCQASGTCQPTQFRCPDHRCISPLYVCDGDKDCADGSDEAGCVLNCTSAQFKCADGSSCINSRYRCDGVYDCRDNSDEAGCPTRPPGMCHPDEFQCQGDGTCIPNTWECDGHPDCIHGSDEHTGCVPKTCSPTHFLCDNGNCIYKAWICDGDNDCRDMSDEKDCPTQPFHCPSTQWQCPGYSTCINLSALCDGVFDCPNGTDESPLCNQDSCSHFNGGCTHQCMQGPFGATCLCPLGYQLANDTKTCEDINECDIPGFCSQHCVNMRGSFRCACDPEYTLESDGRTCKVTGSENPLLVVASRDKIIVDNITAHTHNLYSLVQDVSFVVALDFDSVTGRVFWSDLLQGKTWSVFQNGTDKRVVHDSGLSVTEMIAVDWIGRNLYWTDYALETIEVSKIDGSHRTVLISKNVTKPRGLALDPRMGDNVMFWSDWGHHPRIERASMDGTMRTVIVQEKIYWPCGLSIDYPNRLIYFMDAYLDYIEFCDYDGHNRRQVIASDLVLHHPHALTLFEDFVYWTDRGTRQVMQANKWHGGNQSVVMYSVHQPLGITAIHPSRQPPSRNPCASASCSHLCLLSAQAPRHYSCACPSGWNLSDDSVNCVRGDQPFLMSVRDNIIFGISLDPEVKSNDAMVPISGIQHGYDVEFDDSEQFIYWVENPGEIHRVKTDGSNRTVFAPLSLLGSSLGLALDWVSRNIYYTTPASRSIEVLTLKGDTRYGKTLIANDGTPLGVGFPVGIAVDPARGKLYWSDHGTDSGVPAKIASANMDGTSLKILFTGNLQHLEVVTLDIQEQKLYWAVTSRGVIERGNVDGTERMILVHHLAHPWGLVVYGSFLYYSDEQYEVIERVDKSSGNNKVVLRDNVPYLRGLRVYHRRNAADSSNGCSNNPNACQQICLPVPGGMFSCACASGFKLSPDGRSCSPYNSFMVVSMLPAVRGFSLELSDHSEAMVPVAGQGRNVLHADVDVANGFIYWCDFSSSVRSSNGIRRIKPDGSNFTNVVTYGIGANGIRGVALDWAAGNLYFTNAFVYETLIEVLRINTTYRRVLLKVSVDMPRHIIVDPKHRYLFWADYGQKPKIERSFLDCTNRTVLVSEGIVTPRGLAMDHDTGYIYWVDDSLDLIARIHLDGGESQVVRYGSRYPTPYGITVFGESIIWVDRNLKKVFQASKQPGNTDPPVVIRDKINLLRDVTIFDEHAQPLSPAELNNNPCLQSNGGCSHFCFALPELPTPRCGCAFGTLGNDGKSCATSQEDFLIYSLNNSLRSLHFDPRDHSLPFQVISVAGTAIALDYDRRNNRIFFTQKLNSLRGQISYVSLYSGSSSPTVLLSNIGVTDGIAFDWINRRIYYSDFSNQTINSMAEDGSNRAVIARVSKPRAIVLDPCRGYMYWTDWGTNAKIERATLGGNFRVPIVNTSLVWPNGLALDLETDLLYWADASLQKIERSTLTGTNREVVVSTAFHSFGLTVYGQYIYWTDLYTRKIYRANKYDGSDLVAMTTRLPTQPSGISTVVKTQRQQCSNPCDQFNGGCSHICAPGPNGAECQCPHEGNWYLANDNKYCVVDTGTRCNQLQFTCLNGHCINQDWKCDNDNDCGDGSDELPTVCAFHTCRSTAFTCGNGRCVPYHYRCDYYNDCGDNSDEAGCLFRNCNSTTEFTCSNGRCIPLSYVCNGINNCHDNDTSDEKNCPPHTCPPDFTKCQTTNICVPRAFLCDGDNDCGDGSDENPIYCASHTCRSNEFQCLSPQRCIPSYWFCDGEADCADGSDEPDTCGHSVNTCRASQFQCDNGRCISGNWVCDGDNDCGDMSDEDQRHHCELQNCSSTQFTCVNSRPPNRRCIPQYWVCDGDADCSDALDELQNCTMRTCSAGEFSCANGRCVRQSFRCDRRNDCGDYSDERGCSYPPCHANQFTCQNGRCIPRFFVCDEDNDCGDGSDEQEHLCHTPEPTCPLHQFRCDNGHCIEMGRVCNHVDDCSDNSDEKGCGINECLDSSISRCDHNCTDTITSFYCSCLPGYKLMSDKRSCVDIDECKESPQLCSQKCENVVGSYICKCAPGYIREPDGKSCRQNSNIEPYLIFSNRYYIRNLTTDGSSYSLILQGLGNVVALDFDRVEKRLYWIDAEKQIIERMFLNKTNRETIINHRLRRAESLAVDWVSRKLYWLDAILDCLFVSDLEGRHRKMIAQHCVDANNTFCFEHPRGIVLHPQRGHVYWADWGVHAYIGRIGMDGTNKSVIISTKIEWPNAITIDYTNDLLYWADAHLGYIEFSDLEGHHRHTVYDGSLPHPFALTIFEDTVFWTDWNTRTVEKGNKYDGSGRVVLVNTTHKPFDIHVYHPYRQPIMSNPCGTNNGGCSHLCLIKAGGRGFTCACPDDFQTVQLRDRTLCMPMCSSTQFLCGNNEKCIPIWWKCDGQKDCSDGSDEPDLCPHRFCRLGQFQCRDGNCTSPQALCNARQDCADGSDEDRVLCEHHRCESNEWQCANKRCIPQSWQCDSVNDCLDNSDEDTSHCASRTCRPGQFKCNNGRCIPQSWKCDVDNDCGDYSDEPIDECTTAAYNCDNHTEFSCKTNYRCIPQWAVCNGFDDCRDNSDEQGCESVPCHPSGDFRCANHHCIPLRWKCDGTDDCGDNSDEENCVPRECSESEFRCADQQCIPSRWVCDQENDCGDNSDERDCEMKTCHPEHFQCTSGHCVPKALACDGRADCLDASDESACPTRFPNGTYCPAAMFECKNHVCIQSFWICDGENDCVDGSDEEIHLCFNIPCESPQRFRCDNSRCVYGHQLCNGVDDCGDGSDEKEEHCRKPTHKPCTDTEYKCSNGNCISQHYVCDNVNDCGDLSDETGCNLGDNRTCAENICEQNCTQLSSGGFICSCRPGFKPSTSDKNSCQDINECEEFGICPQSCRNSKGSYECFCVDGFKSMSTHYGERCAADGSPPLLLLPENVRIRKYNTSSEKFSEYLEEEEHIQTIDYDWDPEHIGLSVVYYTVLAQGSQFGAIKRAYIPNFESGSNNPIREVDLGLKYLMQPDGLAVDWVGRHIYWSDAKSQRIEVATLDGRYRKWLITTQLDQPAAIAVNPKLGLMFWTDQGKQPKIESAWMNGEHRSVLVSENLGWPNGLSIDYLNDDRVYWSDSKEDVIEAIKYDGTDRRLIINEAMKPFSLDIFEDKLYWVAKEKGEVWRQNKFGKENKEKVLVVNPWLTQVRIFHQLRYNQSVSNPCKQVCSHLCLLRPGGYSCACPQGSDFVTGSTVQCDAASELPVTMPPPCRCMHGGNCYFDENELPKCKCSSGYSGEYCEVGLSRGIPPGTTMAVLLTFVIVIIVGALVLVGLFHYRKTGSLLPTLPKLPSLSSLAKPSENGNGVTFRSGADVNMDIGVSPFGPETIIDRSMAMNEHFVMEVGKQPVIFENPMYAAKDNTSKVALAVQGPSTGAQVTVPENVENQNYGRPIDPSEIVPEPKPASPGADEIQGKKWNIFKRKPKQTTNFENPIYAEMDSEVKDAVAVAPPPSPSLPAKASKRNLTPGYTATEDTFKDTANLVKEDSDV

B1: human cystatin C (natural protein, UniProt P01034 27-146, looked up)
chain: SSPGKPPRLVGGPMDASVEEEGVRRALDFAVGEYNKASNDMYHSRALQVVRARKQIVAGVNYFLDVELGRTTCTKTQPNLDNCPFHDQPHLKRKAFCSFQIYAVPWQGTMTLSKSTCQDA
notes: also called cysC
For B1, the Kd was around 0.032 µM with rat megalin and around 0.024 µM with rat cubilin.
